These results are taken from the supplement of paper PMC9428881.

This data set is described as follows: background-corrected fluorescence of 3'-dye-labeled ssDNA relative to brightest sequence (3'-GCGCG) (fraction); higher = brighter dye fluorescence (less quenching). The gist of the method:
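Each of 1024 permuted pentamers was synthesized as single-stranded DNA on glass slides by light-directed phosphoramidite chemistry, with a 3' Cy3 or Cy5 dye alongside. Arrays were scanned at 532 or 635 nm before and after overnight deprotection with ethylenediamine/ethanol. Values average 10 features per array across at least 3 syntheses. The fluorescence readout, with unlabeled-oligo background removed, is given relative to the brightest sequence.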

± gives the standard error.

Consider “TTTTTTGATGATCAGCATGATTTTTTTTTTTTTTTCCGTC [CTGCC]”, for which the background-corrected fluorescence worked out at 0.442 ± 0.019 (dye: Cy3 (3' terminal)) and 0.345 ± 0.018 (dye: Cy5 (3' terminal)).

Take “TTTTTTGATGAGCATGCTGATTTTTTTTTTTTTTTCCTAC [CATCC]”: the background-corrected fluorescence is, setting by setting: (dye: Cy3 (3' terminal)) 0.45 ± 0.02; (dye: Cy5 (3' terminal)) 0.306 ± 0.042.

For the sequence “TTTTTGCATGCGCAGCATGCTTTTTTTTTTTTTTTTATTA [ATTAT]”, the background-corrected fluorescence was found to be 0.545 ± 0.017 (dye: Cy3 (3' terminal)) and 0.409 ± 0.035 (dye: Cy5 (3' terminal)).

Regarding “TTTTTTCATCATGCTGATGCTTTTTTTTTTTTTTTGGACA [ACAGG]”, the background-corrected fluorescence amounted to 0.602 ± 0.022 (dye: Cy3 (3' terminal)) and 0.435 ± 0.053 (dye: Cy5 (3' terminal)).

For “TTTTTTGCTGATGCTGATGATTTTTTTTTTTTTTTACACC [CCACA]”, the background-corrected fluorescence runs as follows: (dye: Cy3 (3' terminal)) 0.369 ± 0.022; (dye: Cy5 (3' terminal)) 0.275 ± 0.012.

Turning to “TTTTTGCAGCATCATGCTCATTTTTTTTTTTTTTTTTGAG [GAGTT]”, the background-corrected fluorescence runs as follows: (dye: Cy3 (3' terminal)) 0.542 ± 0.0086; (dye: Cy5 (3' terminal)) 0.429 ± 0.016.

Regarding “TTTTTTCATCAGCATGAGCATTTTTTTTTTTTTTTGGTCT [TCTGG]”, the background-corrected fluorescence is, setting by setting: (dye: Cy3 (3' terminal)) 0.486 ± 0.026; (dye: Cy5 (3' terminal)) 0.391 ± 0.031.

As to “TTTTTTGCGCAGCAGCATCATTTTTTTTTTTTTTTATTTG [GTTTA]”, the background-corrected fluorescence runs as follows: (dye: Cy3 (3' terminal)) 0.5 ± 0.026; (dye: Cy5 (3' terminal)) 0.355 ± 0.025.

For the sequence “TTTTTGCATGCTGAGCAGCATTTTTTTTTTTTTTTTACTT [TTCAT]”, the background-corrected fluorescence reads like this: (dye: Cy3 (3' terminal)) 0.504 ± 0.046; (dye: Cy5 (3' terminal)) 0.358 ± 0.039.

Take “TTTTTTGATGCGCATGAGCATTTTTTTTTTTTTTTCATCT [TCTAC]”: the background-corrected fluorescence runs as follows: (dye: Cy3 (3' terminal)) 0.48 ± 0.021; (dye: Cy5 (3' terminal)) 0.33 ± 0.034.

Take “TTTTTGCATGCTGATGCTCATTTTTTTTTTTTTTTTACAG [GACAT]”: the background-corrected fluorescence (dye: Cy3 (3' terminal)) was 0.499 ± 0.036 and the background-corrected fluorescence (dye: Cy5 (3' terminal)) was found to be 0.413 ± 0.03.

As for “TTTTTTGAGCAGCATCATGCTTTTTTTTTTTTTTTCTTGA [AGTTC]”, the background-corrected fluorescence reads like this: (dye: Cy3 (3' terminal)) 0.615 ± 0.027; (dye: Cy5 (3' terminal)) 0.53 ± 0.07.

With “TTTTTTGAGCATGATGATCATTTTTTTTTTTTTTTCTCCG [GCCTC]”, the background-corrected fluorescence runs as follows: (dye: Cy3 (3' terminal)) 0.531 ± 0.02; (dye: Cy5 (3' terminal)) 0.426 ± 0.028.

Consider “TTTTTTGATGATCAGCAGCATTTTTTTTTTTTTTTCCGTT [TTGCC]”, for which the background-corrected fluorescence is, setting by setting: (dye: Cy3 (3' terminal)) 0.542 ± 0.036; (dye: Cy5 (3' terminal)) 0.446 ± 0.059.

As for “TTTTTTGCTCATGATGCTCATTTTTTTTTTTTTTTAGCAG [GACGA]”, the background-corrected fluorescence stood at 0.574 ± 0.018 (dye: Cy3 (3' terminal)) and 0.42 ± 0.02 (dye: Cy5 (3' terminal)).

“TTTTTGCATGCGCATCAGCATTTTTTTTTTTTTTTTATGT [TGTAT]”: the background-corrected fluorescence was 0.639 ± 0.033 (dye: Cy3 (3' terminal)) and 0.489 ± 0.046 (dye: Cy5 (3' terminal)).

Sequence “TTTTTTGCGCATGCTGCTGCTTTTTTTTTTTTTTTATAAA [AAATA]” registered a background-corrected fluorescence (dye: Cy3 (3' terminal)) of 0.567 ± 0.044 and a background-corrected fluorescence (dye: Cy5 (3' terminal)) of 0.507 ± 0.069.

For the sequence “TTTTTTCATGAGCATGCTGATTTTTTTTTTTTTTTGCTAC [CATCG]”, the background-corrected fluorescence stood at 0.424 ± 0.02 (dye: Cy3 (3' terminal)) and 0.338 ± 0.031 (dye: Cy5 (3' terminal)).

For “TTTTTTCATGATGCTGATGCTTTTTTTTTTTTTTTGCACA [ACACG]”, the background-corrected fluorescence (dye: Cy3 (3' terminal)) was determined as 0.483 ± 0.025 and the background-corrected fluorescence (dye: Cy5 (3' terminal)) was determined as 0.375 ± 0.026.

For the sequence “TTTTTTGCTCATCAGCAGCATTTTTTTTTTTTTTTAGGTT [TTGGA]”, the background-corrected fluorescence is, setting by setting: (dye: Cy3 (3' terminal)) 0.584 ± 0.022; (dye: Cy5 (3' terminal)) 0.464 ± 0.08.

Regarding “TTTTTTCAGCATCATCATCATTTTTTTTTTTTTTTGTGGG [GGGTG]”, the background-corrected fluorescence runs as follows: (dye: Cy3 (3' terminal)) 0.717 ± 0.024; (dye: Cy5 (3' terminal)) 0.586 ± 0.041.

Take “TTTTTTCATCATGCTGCTGATTTTTTTTTTTTTTTGGAAC [CAAGG]”: the background-corrected fluorescence turned out to be 0.463 ± 0.028 (dye: Cy3 (3' terminal)) and 0.352 ± 0.019 (dye: Cy5 (3' terminal)).

On to “TTTTTTGAGCATGCTGATGCTTTTTTTTTTTTTTTCTACA [ACATC]”, for which the background-corrected fluorescence reads like this: (dye: Cy3 (3' terminal)) 0.498 ± 0.043; (dye: Cy5 (3' terminal)) 0.364 ± 0.024.

Sequence “TTTTTTGCTGATCATCATCATTTTTTTTTTTTTTTACGGG [GGGCA]” registered a background-corrected fluorescence (dye: Cy3 (3' terminal)) of 0.6553 ± 0.0063 and a background-corrected fluorescence (dye: Cy5 (3' terminal)) of 0.579 ± 0.05.

As for “TTTTTGCATGCTCATGATGCTTTTTTTTTTTTTTTTAGCA [ACGAT]”, the background-corrected fluorescence is 0.52 ± 0.038 (dye: Cy3 (3' terminal)) and 0.447 ± 0.024 (dye: Cy5 (3' terminal)).

“TTTTTTGATCATCATGAGCATTTTTTTTTTTTTTTCGGCT” showed a background-corrected fluorescence (dye: Cy3 (3' terminal)) of 0.583 ± 0.016 and a background-corrected fluorescence (dye: Cy5 (3' terminal)) of 0.431 ± 0.021.

For the sequence “TTTTTTCATGATGCTGATCATTTTTTTTTTTTTTTGCACG”, the background-corrected fluorescence is, setting by setting: (dye: Cy3 (3' terminal)) 0.548 ± 0.028; (dye: Cy5 (3' terminal)) 0.383 ± 0.035.

In the case of “TTTTTTCATCAGCAGCAGCATTTTTTTTTTTTTTTGGTTT”, the background-corrected fluorescence is, setting by setting: (dye: Cy3 (3' terminal)) 0.536 ± 0.02; (dye: Cy5 (3' terminal)) 0.402 ± 0.045.

With “TTTTTTGCTCATGATCATGATTTTTTTTTTTTTTTAGCGC [CGCGA]”, the background-corrected fluorescence stood at 0.65 ± 0.023 (dye: Cy3 (3' terminal)) and 0.523 ± 0.038 (dye: Cy5 (3' terminal)).

Consider “TTTTTTCATGAGCAGCATCATTTTTTTTTTTTTTTGCTTG [GTTCG]”, for which the background-corrected fluorescence stood at 0.465 ± 0.023 (dye: Cy3 (3' terminal)) and 0.343 ± 0.021 (dye: Cy5 (3' terminal)).

In the case of “TTTTTTGAGCATCATGATGCTTTTTTTTTTTTTTTCTGCA [ACGTC]”, the background-corrected fluorescence runs as follows: (dye: Cy3 (3' terminal)) 0.557 ± 0.03; (dye: Cy5 (3' terminal)) 0.452 ± 0.046.

With “TTTTTTGCTGCTGCTGATGCTTTTTTTTTTTTTTTAAACA [ACAAA]”, the background-corrected fluorescence by setting is: (dye: Cy3 (3' terminal)) 0.51 ± 0.039; (dye: Cy5 (3' terminal)) 0.407 ± 0.023.

In the case of “TTTTTTGATGCTGATCATCATTTTTTTTTTTTTTTCACGG [GGCAC]”, the background-corrected fluorescence by setting is: (dye: Cy3 (3' terminal)) 0.584 ± 0.023; (dye: Cy5 (3' terminal)) 0.525 ± 0.03.

Turning to “TTTTTTCATCATGAGCATGCTTTTTTTTTTTTTTTGGCTA [ATCGG]”, the background-corrected fluorescence stood at 0.483 ± 0.016 (dye: Cy3 (3' terminal)) and 0.42 ± 0.028 (dye: Cy5 (3' terminal)).

Consider “TTTTTGCATCAGCATGATCATTTTTTTTTTTTTTTTGTCG [GCTGT]”, for which the background-corrected fluorescence is, setting by setting: (dye: Cy3 (3' terminal)) 0.552 ± 0.029; (dye: Cy5 (3' terminal)) 0.392 ± 0.023.

As to “TTTTTTCATCAGCATGCTCATTTTTTTTTTTTTTTGGTAG [GATGG]”, the background-corrected fluorescence is 0.541 ± 0.021 (dye: Cy3 (3' terminal)) and 0.431 ± 0.046 (dye: Cy5 (3' terminal)).

“TTTTTTGCTGCTCATCATGCTTTTTTTTTTTTTTTAAGGA [AGGAA]”: the background-corrected fluorescence (dye: Cy3 (3' terminal)) came out at 0.779 ± 0.02 and the background-corrected fluorescence (dye: Cy5 (3' terminal)) turned out to be 0.635 ± 0.045.

For “TTTTTTGATCAGCATGATGATTTTTTTTTTTTTTTCGTCC [CCTGC]”, the background-corrected fluorescence was found to be 0.4 ± 0.0041 (dye: Cy3 (3' terminal)) and 0.315 ± 0.021 (dye: Cy5 (3' terminal)).

On to “TTTTTGCAGCATCAGCAGCATTTTTTTTTTTTTTTTTGTT”, for which the background-corrected fluorescence came to 0.554 ± 0.018 (dye: Cy3 (3' terminal)) and 0.405 ± 0.024 (dye: Cy5 (3' terminal)).

For “TTTTTGCATCATGATCATGCTTTTTTTTTTTTTTTTGCGA [AGCGT]”, the background-corrected fluorescence runs as follows: (dye: Cy3 (3' terminal)) 0.675 ± 0.036; (dye: Cy5 (3' terminal)) 0.616 ± 0.044.

Consider “TTTTTGCATCATGCTGATCATTTTTTTTTTTTTTTTGACG [GCAGT]”, for which the background-corrected fluorescence was found to be 0.536 ± 0.016 (dye: Cy3 (3' terminal)) and 0.433 ± 0.063 (dye: Cy5 (3' terminal)).

“TTTTTTGCGCATGATGATGATTTTTTTTTTTTTTTATCCC [CCCTA]” displayed a background-corrected fluorescence (dye: Cy3 (3' terminal)) of 0.369 ± 0.026 and a background-corrected fluorescence (dye: Cy5 (3' terminal)) of 0.247 ± 0.016.

For “TTTTTTGATCATGCTGATGCTTTTTTTTTTTTTTTCGACA [ACAGC]”, the background-corrected fluorescence is, setting by setting: (dye: Cy3 (3' terminal)) 0.512 ± 0.028; (dye: Cy5 (3' terminal)) 0.429 ± 0.053.
